Experimental data: patent US9458427B2, “IFNγR2 compositions and methods of inhibiting neuronal cell death” (Case Western Reserve University, priority 2009, dated 2016)

T1: human Bak (Homo sapiens, UniProt Q16611)
T1 construct: expressed in transfected cells; host or cells: HEK293
T1 sequence (Q16611 1-211): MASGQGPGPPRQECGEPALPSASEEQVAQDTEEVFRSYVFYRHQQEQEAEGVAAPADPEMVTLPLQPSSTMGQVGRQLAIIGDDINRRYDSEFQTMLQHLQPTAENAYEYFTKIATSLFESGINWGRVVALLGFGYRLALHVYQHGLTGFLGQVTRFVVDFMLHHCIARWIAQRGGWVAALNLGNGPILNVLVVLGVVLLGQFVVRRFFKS


Key:
[1] = target: T2, Mouse Bax (Mus musculus, UniProt Q07813); assay: Yeast-based functional screening for Bax inhibitors; type: cell-based; details: yeast strain EGY48, galactose-inducible mouse Bax
T2 construct: expressed in transfected cells; host or cells: yeast strain EGY48, pGilda vector
T2 sequence (Q07813 whole entry): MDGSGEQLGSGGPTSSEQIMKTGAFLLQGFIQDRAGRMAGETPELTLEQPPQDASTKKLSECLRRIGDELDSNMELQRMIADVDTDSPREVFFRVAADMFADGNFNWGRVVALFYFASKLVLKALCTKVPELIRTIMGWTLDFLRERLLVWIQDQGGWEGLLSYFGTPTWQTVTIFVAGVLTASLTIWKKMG
Description: The yeast strain EGY48 was used for the yeast functional screening for Bax inhibitors. Mouse Bax was expressed under a galactose-inducible promoter using pGilda vector as reported. Yeast expression libraries of cDNAs of mouse brain and a human cell line (HeLa) were prepared in pYES2 and pJG4-5 vectors, respectively.
To perform a yeast-based functional screen for Bax inhibitors, yeast expression cDNA libraries were generated from purified mRNAs of human HeLa cells and mouse brain tissue using pJG4-5 and pYES2 vectors, respectively. […] IFNγR2263-337 contains a Jak2-binding domain (amino acids 284-295). To determine the role of the Jak2-binding domain in Bax inhibition, two IFNγR2 mutants were generated (FIG. 1B) and tested for their anti-Bax activity in human cells as described below.

[2] = target: T3, human Bax ΔTM (Homo sapiens, UniProt Q07812); assay: Binding of recombinant proteins (pull-down on anti-Bax beads); details: purified recombinant proteins, IFNγR2263-337 tagged with thioredoxin (rTrx)
T3 construct: Bax C terminal transmembrane truncated human Bax; His tag (on MBP) (N, cleaved yes); made in house
T3 sequence (Q07812 1-171 limits assumed, stated change not applied): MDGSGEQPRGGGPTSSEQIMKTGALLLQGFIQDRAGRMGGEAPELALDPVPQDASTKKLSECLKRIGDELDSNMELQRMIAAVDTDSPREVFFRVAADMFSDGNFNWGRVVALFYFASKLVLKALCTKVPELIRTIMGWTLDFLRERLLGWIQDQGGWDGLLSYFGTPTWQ
Text: Recombinant human Bax ΔTM (Bax C terminal transmembrane truncated human Bax) was produced by using pHMTc vector downstream of maltose binding protein (MBP), separated by the TEV protease site. Overexpressed MBP-Bax was purified through a maltose-binding column (NEB) and subsequently cleaved by TEV protease (Invitrogen), followed by Ni-affinity purification to remove the protease and the His-tagged MBP. IFNγR2 cytoplamic domain (amino acids 263 337) was fused with thioredoxin (rTrx) to increase the recovery rate from bacterial lysates. The production and the purification of this fusion protein were performed by Protein X Laboratory (San Diego, Calif.). Recombinant Bax (25 ng) was loaded onto Sepharose G beads pre-equilibrated with anti-Bax antibody (Bax B9, Santa Cruz) or pre-immune IgG (control IgG) at 4° C. for 2 h. The excess Bax molecules were washed 3 times with buffer (50 mM phosphate buffer, pH 7.4). Recombinant IFNγR2 (263-337)-rTrx (25 ng) was added to the beads preloaded with Bax and anti-Bax or control IgG. Beads and IFNγR2263-337-rTrx were incubated at 4° C. for 2 h. After the incubation, beads were extensively washed with the loading buffer (50 mM phosphate buffer, pH 7.4). Beads were boiled in Laemmli buffer, and the supernatant was collected as a sample. Samples were analyzed by western blot using anti IFNγR2 antibody (C20, Santa Cruz) and Bax (N20, Santa Cruz).

[3] = system: HT1080 (IFNγR2 null mutant and JAK2 null mutant) cells; assay: Etoposide-induced apoptosis in HT1080-derived IFNγR2 null and Jak2 null cells (Hoechst nuclear staining); type: cell-based, human; details: cells lacking IFNγR2 and Jak2, 10 μM etoposide for 24 h
Description: HT1080 (wild type, IFNγR2 null mutant and JAK2 null mutant) cells were cultured in Dulbecco's Modified Eagle's Medium (DMEM) supplemented with 10% fetal bovine serum (FBS). HeLa, Human Embryonic Kidney (HEK) 293 and HEK293T cells were purchased from ATCC, and cultured in DMEM supplemented with 10% FBS. LNCap and PC3 cells were purchased from ATCC and cultured in DMEM F12 medium supplemented with 10% FBS. RWPE1 and RWPE2 were purchased from ATCC and cultured in keratinocytes-SFM plus supplements medium (Gibco). Primary mammary epithelial (4A100) cultures were derived from organoids isolated from discarded mammary tissue acquired from patients undergoing reduction mammoplasty surgery. Anonymized specimens were acquired from patients who had given written consent, through the Tissue Procurement and Histology Core Facility of the Case Comprehensive Cancer Center (Case), under a Case CCC IRB approved protocol. Primary epithelial cultures were grown in M87A+X medium. Human HME1 cells (Clontech) were grown in medium 171 with mammary epithelial growth supplement (Cascade Biologics) and penicillin-streptomycin.42 Human breast cancer cell line MDA-MD468 was cultured in RPMI, 5% FBS, supplemented with L-glutamine, penicillin-streptomycin and fungizone (Gibco). […]
Cells were cultured overnight in DMEM supplemented with 10% FBS. […] Transfection efficiency was analyzed by the expression of the EGFP-tagged proteins.
(§1) Apoptosis was induced by transfecting the cells with pcDNA3-human Bax, or pcDNA3-human Bak, or pcDNA3-human Bim EL, or by treatment with etoposide (10 μM) or staurosporine (100 nM). To determine the induction of apoptosis by different apoptotic stresses, cells were stained with Hoechst 33258 dye, and the numbers of cells with apoptotic nuclei were counted using fluorescence microscopy. Three hundred cells were analyzed in triplicate samples. […] Caspase activity were measured by using a fluorogenic caspase 3 substrate II (Calbiochem), IFNγR2 constructs were cloned in pEGFP-C2 (IFNγR2wild type, IFNγR21-295 and IFNγR2296-337) vector.

[4] = system: Caspase 3; assay: Etoposide-induced Caspase 3 activation in IFNγR2 null cells; type: cell-based, human; details: 10 μM etoposide for 24 h, plasmid-mediated expression
Description: as §1

[5] = system: human Bim EL; assay: Apoptosis induced by Bim overexpression in HEK293T cells; type: cell-based; details: 24 h after transfection
Description: (§2) Cells were cultured overnight in DMEM supplemented with 10% FBS. The transfections were performed using […]® (Qiagen, Valencia, Calif.) in accordance with the manufacturer's instructions. Transfection efficiency was analyzed by the expression of the EGFP-tagged proteins.
as §1
(§3) For Bax, Bak or Bim EL overexpression, cells were transfected with either 1 μg pcDNA3-human Bax, 1 μg pcDNA3-human Bak, or 1 μg pcDNA3 human Bim EL, and 4 μg of pEGFP plasmid encoding IFNγR2, and the apoptosis or caspase activity was determined 24 h after the transfection.

[6] = target: T1, human Bak; assay: Apoptosis induced by Bak overexpression in HEK293 cells; type: cell-based; details: 24 h after transfection
Description: as §2, §1, §3

[7] = target: T4, Bax (Homo sapiens, UniProt Q07812); assay: Staurosporine-induced Bax activation in HeLa cells (6A7 antibody immunostaining); type: cell-based; design: endogenous in cells; host or cells: HeLa; details: staurosporine 100 nM, 3 h
T4 sequence (Q07812 whole entry): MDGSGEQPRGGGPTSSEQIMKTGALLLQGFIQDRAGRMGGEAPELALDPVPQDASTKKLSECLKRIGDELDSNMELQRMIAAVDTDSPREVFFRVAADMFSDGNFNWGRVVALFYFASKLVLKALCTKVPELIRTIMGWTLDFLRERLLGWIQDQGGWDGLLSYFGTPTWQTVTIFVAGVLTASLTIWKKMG
Description: HeLa cells were transiently transfected with pEGFP-C2-IFNγR2 (wild type 1-295, or 296-337) using […]® (Qiagen, Valencia, Calif.) in accordance with the manufacturer's instructions. Four micograms of the plasmid were used to transfect cells cultured in 6-cm diameter dishes. After 24 h of transfection, the cells were treated with staurosporine (100 nM) for 3 h. Then, the cells were washed with phosphate buffer pH 7.4 (PBS), fixed using paraformaldehyde (1%), permeabilized with Triton X-100 (0.02%), blocked with goat serum, and the activation of Bax was analyzed by immunocytochemistry using monoclonal Bax 6A7 antibody (BDPharmingen) and ALEXA FLUOR® 568-labeled anti-mouse IgG secondary antibody (Invitrogen).

[8] = target: T4, Bax; assay: Apoptosis induced by Bax overexpression in HEK293 cells (Hoechst nuclear staining); type: cell-based; design: expressed in transfected cells; host or cells: HEK293; details: HEK293 cells co-transfected with pcDNA3-h Bax and pEGFP-C2-IFNγR2 construct, 24 h after transfection
Description: as §2, §1, §3

| Molecule | Suppression of Bax in yeast (rescue of yeast growth from Bax expression) [1] | Direct interaction with BaxΔTM [2] | Inhibition of etoposide-induced apoptosis [3] | Inhibition of etoposide-induced Caspase 3 activation [4] | Inhibition of apoptosis induced by Bim overexpression [5] | Rescue from apoptosis induced by Bak overexpression [6] | Inhibition of STS-induced Bax activation (6A7 Ab-positive cells in GFP-positive cells) [7] | Inhibition of apoptosis induced by Bax overexpression [8] |
| --- | --- | --- | --- | --- | --- | --- | --- | --- |
| IFNγR2263-337: cytoplasmic domain of IFNγR2 (amino acids 263-337); recombinant form fused with thioredoxin (rTrx) (protein, left off: large carriers) AGACFFLVLKYRGLIKYWFHTPPSIPLQIEEYLKDPTQPILEALDKDSSPKDDVWDSVSIISFPEKEQEDVLQTL | Bax suppressor | confirmed |  |  |  |  |  |  |
| IFNγR2wild type: interferon gamma receptor beta chain, full length, expressed from pEGFP-C2 plasmid as EGFP fusion (protein, left off: large carriers, interferon gamma receptor beta chain, full length, expressed from pEGFP-C2 plasmid as EGFP fusion) APPDPLSQLPAPQHPKIRLYNAEQVLSWEPVALSNSTRPVVYQVQFKYTDSKWFTADIMSIGVNCTQITATECDFTAASPSAGFPMDFNVTLRLRAELGALHSAWVTMPWFQHYRNVTVGPPENIEVTPGEGSLIIRFSSPFDIADTSTAFFCYYVHYWEKGGIQQVKGPFRSNSISLDNLKPSRVYCLQVQAQLLWNKSNIFRVGHLSNISCYETMADASTELQQVILISVGTFSLLSVLAGACFFLVLKYRGLIKYWFHTPPSIPLQIEEYLKDPTQPILEALDKDSSPKDDVWDSVSIISFPEKEQEDVLQTL |  |  | able to inhibit etoposide-induced apoptosis | inhibited etoposide-induced Caspase 3 activation | able to inhibit apoptosis induced by Bim overexpression | could not rescue cells from apoptosis induced by Bak overexpression | inhibited STS-induced Bax activation | able to inhibit apoptosis induced by Bax overexpression |
